Results on 6 molecules are retold here after US20240400613A1 (SUN PHARMACEUTICAL INDUSTRIES, published 2024).

Experiment [1] has as its target GLP-1R (UniProt P43220 24-463, limits assumed). Kind of experiment: cell-based or functional assay.
The target in experiment [2] is T1, GIPR (UniProt P48546 22-466, limits assumed).
T1 sequence (looked up): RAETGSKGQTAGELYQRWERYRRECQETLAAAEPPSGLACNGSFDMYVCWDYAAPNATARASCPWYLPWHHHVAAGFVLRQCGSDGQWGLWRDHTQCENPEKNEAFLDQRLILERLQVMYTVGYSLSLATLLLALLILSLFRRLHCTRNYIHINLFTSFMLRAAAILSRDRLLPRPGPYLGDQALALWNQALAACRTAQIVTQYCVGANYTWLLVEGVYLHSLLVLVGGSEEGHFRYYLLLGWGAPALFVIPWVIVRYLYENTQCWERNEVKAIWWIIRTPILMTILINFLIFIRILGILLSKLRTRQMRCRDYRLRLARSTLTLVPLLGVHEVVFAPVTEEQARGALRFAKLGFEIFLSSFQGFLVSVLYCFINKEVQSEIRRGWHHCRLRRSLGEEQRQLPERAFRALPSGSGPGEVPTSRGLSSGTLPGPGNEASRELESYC
Kind of experiment: cell-based or functional assay.

Starred links: 1 amine or outer side, 2 acyl side, 3 side chain; linkers in the order of their positions; H or OH if unused. Non-standard residues stand in square brackets, D forms with d. Groups on a side chain read outwards from the residue. No end group written: not given here. *: point of attachment. C20 diacid = O=C(O)CCCCCCCCCCCCCCCCCCC(=O)*; γGlu = O=C(O)[C@H](CCC(=O)[*:2])N[*:1]; Nle = CCCC[C@H](N)C(=O)O; Nva = CCC[C@H](N)C(=O)O; AEEA = NCCOCCOCC(=O)O; Aib = CC(C)(N)C(=O)O

In turn, Tirzepatide (peptide) had a Half effective Concentration (EC50), cellular cAMP assay on GLP-1R-expressing cells in experiment [1] of 6800 pM. For the same molecule, the Half effective Concentration (EC50), cellular cAMP assay on GIPR-expressing cells in experiment [2] is 1900 pM.

B1: Compound 6 (peptide)
peptide: Y[Aib]EGTFTSDYSI[Nva]LDKIAQK([AEEA-AEEA-γGlu-C20 diacid])AFVQWLIAGGPSSGAPPPS-NH2
modifications: N-terminus assumed
SMILES: CCC[C@H](NC(=O)[C@@H](NC(=O)[C@H](CO)NC(=O)[C@H](Cc1ccc(O)cc1)NC(=O)[C@H](CC(=O)O)NC(=O)[C@H](CO)NC(=O)[C@@H](NC(=O)[C@H](Cc1ccccc1)NC(=O)[C@@H](NC(=O)CNC(=O)[C@H](CCC(=O)O)NC(=O)C(C)(C)NC(=O)[C@@H](N)Cc1ccc(O)cc1)[C@@H](C)O)[C@@H](C)O)[C@@H](C)CC)C(=O)N[C@@H](CC(C)C)C(=O)N[C@@H](CC(=O)O)C(=O)N[C@@H](CCCCN)C(=O)N[C@H](C(=O)N[C@@H](C)C(=O)N[C@@H](CCC(N)=O)C(=O)N[C@@H](CCCCNC(=O)COCCOCCNC(=O)COCCOCCNC(=O)CC[C@H](NC(=O)CCCCCCCCCCCCCCCCCCC(=O)O)C(=O)O)C(=O)N[C@@H](C)C(=O)N[C@@H](Cc1ccccc1)C(=O)N[C@H](C(=O)N[C@@H](CCC(N)=O)C(=O)N[C@@H](Cc1c[nH]c2ccccc12)C(=O)N[C@@H](CC(C)C)C(=O)N[C@H](C(=O)N[C@@H](C)C(=O)NCC(=O)NCC(=O)N1CCC[C@H]1C(=O)N[C@@H](CO)C(=O)N[C@@H](CO)C(=O)NCC(=O)N[C@@H](C)C(=O)N1CCC[C@H]1C(=O)N1CCC[C@H]1C(=O)N1CCC[C@H]1C(=O)N[C@@H](CO)C(N)=O)[C@@H](C)CC)C(C)C)[C@@H](C)CC
Take B1: the “Half effective Concentration (EC50), cellular cAMP assay on GLP-1R-expressing cells” value in experiment [1] stood at 19.6 pM. Besides, the “Half effective Concentration (EC50), cellular cAMP assay on GIPR-expressing cells” value in experiment [2] is 17.7 pM.

B2: Compound 3 (peptide)
peptide: Y[Aib]EGTFTSDYSILLDKIAQK([AEEA-Aib-γGlu-C20 diacid])AFVQWLIAGGPSSGAPPPS-NH2
modifications: N-terminus assumed
SMILES: CC[C@H](C)[C@H](NC(=O)[C@H](CCCCN)NC(=O)[C@H](CC(=O)O)NC(=O)[C@H](CC(C)C)NC(=O)[C@H](CC(C)C)NC(=O)[C@@H](NC(=O)[C@H](CO)NC(=O)[C@H](Cc1ccc(O)cc1)NC(=O)[C@H](CC(=O)O)NC(=O)[C@H](CO)NC(=O)[C@@H](NC(=O)[C@H](Cc1ccccc1)NC(=O)[C@@H](NC(=O)CNC(=O)[C@H](CCC(=O)O)NC(=O)C(C)(C)NC(=O)[C@@H](N)Cc1ccc(O)cc1)[C@@H](C)O)[C@@H](C)O)[C@@H](C)CC)C(=O)N[C@@H](C)C(=O)N[C@@H](CCC(N)=O)C(=O)N[C@@H](CCCCNC(=O)COCCOCCNC(=O)C(C)(C)NC(=O)CC[C@H](NC(=O)CCCCCCCCCCCCCCCCCCC(=O)O)C(=O)O)C(=O)N[C@@H](C)C(=O)N[C@@H](Cc1ccccc1)C(=O)N[C@H](C(=O)N[C@@H](CCC(N)=O)C(=O)N[C@@H](Cc1c[nH]c2ccccc12)C(=O)N[C@@H](CC(C)C)C(=O)N[C@H](C(=O)N[C@@H](C)C(=O)NCC(=O)NCC(=O)N1CCC[C@H]1C(=O)N[C@@H](CO)C(=O)N[C@@H](CO)C(=O)NCC(=O)N[C@@H](C)C(=O)N1CCC[C@H]1C(=O)N1CCC[C@H]1C(=O)N1CCC[C@H]1C(=O)N[C@@H](CO)C(N)=O)[C@@H](C)CC)C(C)C
On to B2, for which, in experiment [1], the “Half effective Concentration (EC50), cellular cAMP assay on GLP-1R-expressing cells” value was found to be 32.7 pM. Moreover, the “Half effective Concentration (EC50), cellular cAMP assay on GIPR-expressing cells” value in experiment [2] stood at 12.8 pM.

B3: Compound 10 (peptide)
peptide: YXEGTFTSDYSIXLDKIAQKAFVQWLIAGGPSSGAPPPS
modifications: Aib at position 2; L-homoalanine (2-aminobutyric acid) at position 13; Lys 20 side chain (epsilon amino) acylated with Moiety A; C-terminal amide (Ser-NH2)
As to B3, in experiment [1], the “Half effective Concentration (EC50), cellular cAMP assay on GLP-1R-expressing cells” value stood at 3.6 pM. The “Half effective Concentration (EC50), cellular cAMP assay on GIPR-expressing cells” value in experiment [2] came to 7.3 pM.

B4: Compound 11 (peptide)
peptide: Y[Aib]EGTFTSDYSI[Nle]LDKIAQK([AEEA-Aib-γGlu-C20 diacid])AFVQWLIAGGPSSGAPPPS-NH2
modifications: N-terminus assumed
SMILES: CCCC[C@H](NC(=O)[C@@H](NC(=O)[C@H](CO)NC(=O)[C@H](Cc1ccc(O)cc1)NC(=O)[C@H](CC(=O)O)NC(=O)[C@H](CO)NC(=O)[C@@H](NC(=O)[C@H](Cc1ccccc1)NC(=O)[C@@H](NC(=O)CNC(=O)[C@H](CCC(=O)O)NC(=O)C(C)(C)NC(=O)[C@@H](N)Cc1ccc(O)cc1)[C@@H](C)O)[C@@H](C)O)[C@@H](C)CC)C(=O)N[C@@H](CC(C)C)C(=O)N[C@@H](CC(=O)O)C(=O)N[C@@H](CCCCN)C(=O)N[C@H](C(=O)N[C@@H](C)C(=O)N[C@@H](CCC(N)=O)C(=O)N[C@@H](CCCCNC(=O)COCCOCCNC(=O)C(C)(C)NC(=O)CC[C@H](NC(=O)CCCCCCCCCCCCCCCCCCC(=O)O)C(=O)O)C(=O)N[C@@H](C)C(=O)N[C@@H](Cc1ccccc1)C(=O)N[C@H](C(=O)N[C@@H](CCC(N)=O)C(=O)N[C@@H](Cc1c[nH]c2ccccc12)C(=O)N[C@@H](CC(C)C)C(=O)N[C@H](C(=O)N[C@@H](C)C(=O)NCC(=O)NCC(=O)N1CCC[C@H]1C(=O)N[C@@H](CO)C(=O)N[C@@H](CO)C(=O)NCC(=O)N[C@@H](C)C(=O)N1CCC[C@H]1C(=O)N1CCC[C@H]1C(=O)N1CCC[C@H]1C(=O)N[C@@H](CO)C(N)=O)[C@@H](C)CC)C(C)C)[C@@H](C)CC
Take B4: the “Half effective Concentration (EC50), cellular cAMP assay on GLP-1R-expressing cells” value in experiment [1] is 5.9 pM. Also, the “Half effective Concentration (EC50), cellular cAMP assay on GIPR-expressing cells” value in experiment [2] was determined as 6.4 pM.

B5: Compound 1 (peptide)
peptide: Y[Aib]EGTFTSDYSI[Nva]LDKIAQK([AEEA-Aib-γGlu-C20 diacid])AFVQWLIAGGPSSGAPPPS-NH2
modifications: N-terminus assumed
SMILES: CCC[C@H](NC(=O)[C@@H](NC(=O)[C@H](CO)NC(=O)[C@H](Cc1ccc(O)cc1)NC(=O)[C@H](CC(=O)O)NC(=O)[C@H](CO)NC(=O)[C@@H](NC(=O)[C@H](Cc1ccccc1)NC(=O)[C@@H](NC(=O)CNC(=O)[C@H](CCC(=O)O)NC(=O)C(C)(C)NC(=O)[C@@H](N)Cc1ccc(O)cc1)[C@@H](C)O)[C@@H](C)O)[C@@H](C)CC)C(=O)N[C@@H](CC(C)C)C(=O)N[C@@H](CC(=O)O)C(=O)N[C@@H](CCCCN)C(=O)N[C@H](C(=O)N[C@@H](C)C(=O)N[C@@H](CCC(N)=O)C(=O)N[C@@H](CCCCNC(=O)COCCOCCNC(=O)C(C)(C)NC(=O)CC[C@H](NC(=O)CCCCCCCCCCCCCCCCCCC(=O)O)C(=O)O)C(=O)N[C@@H](C)C(=O)N[C@@H](Cc1ccccc1)C(=O)N[C@H](C(=O)N[C@@H](CCC(N)=O)C(=O)N[C@@H](Cc1c[nH]c2ccccc12)C(=O)N[C@@H](CC(C)C)C(=O)N[C@H](C(=O)N[C@@H](C)C(=O)NCC(=O)NCC(=O)N1CCC[C@H]1C(=O)N[C@@H](CO)C(=O)N[C@@H](CO)C(=O)NCC(=O)N[C@@H](C)C(=O)N1CCC[C@H]1C(=O)N1CCC[C@H]1C(=O)N1CCC[C@H]1C(=O)N[C@@H](CO)C(N)=O)[C@@H](C)CC)C(C)C)[C@@H](C)CC
Regarding B5, the “Half effective Concentration (EC50), cellular cAMP assay on GLP-1R-expressing cells” value in experiment [1] stood at 12.4 pM. Also, in experiment [2], the “Half effective Concentration (EC50), cellular cAMP assay on GIPR-expressing cells” value came out at 27.6 pM.
